Measured values reported in the supplement of paper PMC10567573.

B1: TRIM63 (parent)
chain: ANPYWTSRGSSVSMSGGRFRCPTC
B2: TOR1AIP2 (parent)
chain: YTSSQKVSPIQIDGAGRTWQDSDT

Variants of: B1
Assay: protein stability index of a GFP-peptide fusion (GPS, HEK-293T) (PSI 1-6); higher = more stable
Conditions: c terminus: a fixed tail appended
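Further: lentivirally expressed fusions sorted by FACS into six bins by GFP to DsRed ratio, PSI derived from sequencing read proportions per bin multiplied by bin number.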

Protein stability index: each site, then its substitutions
G16: C 1.91; A 1.72; N 1.34; K 2.1; E 1.58; T 1.96; F 1.32; P 2.08; H 2.42; M 1.83; Y 2.24; R 1.05; W 1.8; D 2.23; V 1.3; Q 1.7
R20: N 1.57; G 1.82; V 2.13; P 2.4; Q 1.84; E 1.74; D 2.79; H 1.85; C 2.12; S 2.32; M 2.12; W 2.43; Y 1.96; A 2.38; T 1.78; L 1.51; K 2.61; I 1.91; F 1.27
T23: G 3.11; S 2.52; E 1.69; A 1.87; K 3.23; M 2.44; L 2.58; H 2.28; Q 1.95; R 2.43; N 2.03; D 1.71; Y 1.75; P 2.26; F 1.45; W 2.47; V 1.34
C21: Y 2.15; I 2.67; T 2.23; G 2.86; R 2.77; N 2.77; W 1.71; F 1.76; V 1.9; K 2.97; P 2.72; L 2.32; M 3.26; E 3.46
R18: D 2.16; P 1.65; V 1.08; N 2.24; Q 1.32; M 2.49; E 2.48; F 1.46; I 1.37; G 1.44; A 1.89; C 1.4; T 2.14; K 1.44
C24: E 3.19; T 2.69; I 2.05; Y 3.28; V 2.3; N 2.66; P 3.22; G 3.18; F 2.55; Q 2.12; S 2.88; H 2.29; K 2.84; M 2.07; R 4.13; D 3.73
G17: L 1.81; C 1.98; N 1.75; H 1.53; S 2.26; D 1.43; W 1.49; V 2.77; A 1.84; F 1.72; I 2.27; T 1.17; E 1.7; P 1.76; M 2.73; Q 2.07; R 2.65
R8: V 1.95; T 1.8; Y 1.71; P 1.55; N 1.92; K 1.95; I 1.4; M 1.39; L 2.33; S 1.65; Q 1.99
M14: N 2.03; H 2.21; S 2.32; F 2.04; P 2.64; L 2.21; G 1.83; K 1.85; Q 1.41; V 1.86
F19: M 2.79; I 2.34; G 3.02; E 3.29; Q 2.19; C 3.67; N 2.24; S 3.07; Y 2.04; D 2.75; A 2.04; H 2.12; P 2.25; R 2.51; T 2.94
S15: W 1.8; H 1.87; I 1.4; D 2.3; E 2.1; N 1.01; L 2.03; F 2.61; Q 2.58; P 2.09; A 2.94; C 2.02; T 1.43; Y 1.57
V12: F 1.64; P 2.78; H 1.98; I 2.46; Y 1.69; T 2.9; D 1.67; E 2.16; L 1.29; S 2.46; R 1.32; M 1.63; N 2.03; W 2.87; A 1.49; K 2.19; G 2.1
S13: D 2.06; W 1.79; V 1.89; Y 2.18; Q 2.13; I 1.58; N 2.18; K 2.39; R 1.52; A 1.9; P 2.21; G 3.37; L 2.07; F 1.93; E 2.98; T 1.83; H 1.9; C 2.02
P22: D 2.22; S 2.19; R 2.12; M 1.97; L 1.24; K 1.98; I 2.75; H 2.39; C 1.89; F 2.97; N 2.5; Q 2.87; V 2.56; T 2.69
S10: W 3.35; V 1.72; F 2.56; P 1.75; K 1.65; C 2.18; H 2.44; Q 2.83; L 1.46; A 1.68; M 1.84; T 2.24; E 1.76; Y 1.57
S11: K 1.29; P 2.14; M 1.63; Q 2.55; F 2.15; H 2.68; N 2.32; Y 1.8; V 2.21; L 1.1; D 2.08; A 2.3; T 2.18; E 1.76; I 3.32; C 1.88
G9: S 1.9; N 2.13; I 1.39; Y 2.32; A 1.7; L 1.56; P 1.76; E 1.6; V 1.91; Q 1.3; W 1.43; D 1.94; F 1.92; K 1.98; H 1.31; M 1.39; R 2.15

Variants of: B2
Assay: as above
Conditions: c terminus: a fixed tail appended

Protein stability index, by site and new letter:
Y1: S 4.77; P 4.4; I 4.3; R 4.8; C 4.22; Q 4.64; L 4.06; W 3.6; K 4.86; V 4.26; E 5.31; F 3.02; A 3.7; H 5.19; T 4.68; N 4.87; D 4.85; M 5.05
T2: D 5.15; K 4.83; N 4.41; C 2.46; Y 3.54; Q 3.17; S 4.31; W 2.83; F 4.19; R 4.72; A 3.8; E 4.74; I 2.58; M 3.9; G 3.91; P 3.93; L 3.94; H 2.14
S3: Y 2.81; Q 3.82; H 4.38; L 3.18; F 2.95; A 3; P 2.57; D 4.32; G 3.61; M 3.01; W 3.04; T 3.08; V 3.3; K 3.82; N 4.21; E 3.87; C 3.55; R 3.39; I 3.13
S4: E 3.35; N 3.65; K 2.36; Y 2.67; P 3.18; G 3.59; H 3.37; T 3.34; D 4.57; C 2.78; R 3.23; V 3.27; F 2.58; A 3.06; M 2.65; Q 3.25; I 2.92; L 2.84
Q5: C 2.13; A 3.08
